“And” between values parts separate entries of the source, which are not always exact repeats. Equal values may be shown once. Ends that are not written are not given here. * marks the point of attachment. Biotin = O=C1N[C@H]2[C@H](CS[C@H]2CCCCC(=O)*)N1
B1: HaloTag[22-297](Q145H+P154R)-LgBiT (other)
chain: MMHYVDVGPRDGTPVLFLHGNPTSSYVWRNIIPHVAPTHRCIAPDLIGMGKSDKPDLGYFFDDHVRFMDAFIEALGLEEVVLVIHDWGSALGFHWAKRNPERVKGIAFMEFIRPIPTWDEWPEFARETFQAFRTTDVGRKLIIDHNVFIEGTLRMGVVRPLTEVEMDHYREPFLNPVDREPLWRFPNELPIAGEPANIVALVEEYMDWLHQSPVPKLLFWGTPGVLIPPAEAARLAKSLPNCKAVDIGPGLNLLQEDNPDLIGSEIARWLSTLEISGGSGGSGGGGSGGMVFTLEDFVGDWEQTAAYNLDQVLEQGGVSSLLQNLAVSVTPIQRIVRSGENALKIDIHVIIPYEGLSADQMAQIEEVFKVVYPVDDHHFKVILPYGTLVIDGVTPNMLNYFGRPYEGIAVFDGKKITVTGTLWNGNKIIDERLITPDGSMLFRVTINSGSGHHHHHH
B2: HaloTag[22-297](M2F + K140E)-12xGly/Ser-LgBiT-3xGly/Ser-6xHis (other)
chain: MFHYVDVGPRDGTPVLFLHGNPTSSYVWRNIIPHVAPTHRCIAPDLIGMGKSDKPDLGYFFDDHVRFMDAFIEALGLEEVVLVIHDWGSALGFHWAKRNPERVKGIAFMEFIRPIPTWDEWPEFARETFQAFRTTDVGRELIIDQNVFIEGTLPMGVVRPLTEVEMDHYREPFLNPVDREPLWRFPNELPIAGEPANIVALVEEYMDWLHQSPVPKLLFWGTPGVLIPPAEAARLAKSLPNCKAVDIGPGLNLLQEDNPDLIGSEIARWLSTLEISGGSGGSGGGGSGGMVFTLEDFVGDWEQTAAYNLDQVLEQGGVSSLLQNLAVSVTPIQRIVRSGENALKIDIHVIIPYEGLSADQMAQIEEVFKVVYPVDDHHFKVILPYGTLVIDGVTPNMLNYFGRPYEGIAVFDGKKITVTGTLWNGNKIIDERLITPDGSMLFRVTINSGSGHHHHHH
notes: Purified tandem polypeptide reporter variant
B3: HaloTag[22-297](M2F + D53G + V177E)-12xGly/Ser-LgBiT-3xGly/Ser-6xHis (other)
chain: MFHYVDVGPRDGTPVLFLHGNPTSSYVWRNIIPHVAPTHRCIAPDLIGMGKSGKPDLGYFFDDHVRFMDAFIEALGLEEVVLVIHDWGSALGFHWAKRNPERVKGIAFMEFIRPIPTWDEWPEFARETFQAFRTTDVGRKLIIDQNVFIEGTLPMGVVRPLTEVEMDHYREPFLNPEDREPLWRFPNELPIAGEPANIVALVEEYMDWLHQSPVPKLLFWGTPGVLIPPAEAARLAKSLPNCKAVDIGPGLNLLQEDNPDLIGSEIARWLSTLEISGGSGGSGGGGSGGMVFTLEDFVGDWEQTAAYNLDQVLEQGGVSSLLQNLAVSVTPIQRIVRSGENALKIDIHVIIPYEGLSADQMAQIEEVFKVVYPVDDHHFKVILPYGTLVIDGVTPNMLNYFGRPYEGIAVFDGKKITVTGTLWNGNKIIDERLITPDGSMLFRVTINSGSGHHHHHH
notes: as for B2
B4: HaloTag[22-297](M2F + F148M + V177E)-12xGly/Ser-LgBiT-3xGly/Ser-6xHis (other)
chain: MFHYVDVGPRDGTPVLFLHGNPTSSYVWRNIIPHVAPTHRCIAPDLIGMGKSDKPDLGYFFDDHVRFMDAFIEALGLEEVVLVIHDWGSALGFHWAKRNPERVKGIAFMEFIRPIPTWDEWPEFARETFQAFRTTDVGRKLIIDQNVMIEGTLPMGVVRPLTEVEMDHYREPFLNPEDREPLWRFPNELPIAGEPANIVALVEEYMDWLHQSPVPKLLFWGTPGVLIPPAEAARLAKSLPNCKAVDIGPGLNLLQEDNPDLIGSEIARWLSTLEISGGSGGSGGGGSGGMVFTLEDFVGDWEQTAAYNLDQVLEQGGVSSLLQNLAVSVTPIQRIVRSGENALKIDIHVIIPYEGLSADQMAQIEEVFKVVYPVDDHHFKVILPYGTLVIDGVTPNMLNYFGRPYEGIAVFDGKKITVTGTLWNGNKIIDERLITPDGSMLFRVTINSGSGHHHHHH
notes: as for B2
B5: HaloTag[22-297](M2F)-12xGly/Ser-LgBiT (other)
chain: MFHYVDVGPRDGTPVLFLHGNPTSSYVWRNIIPHVAPTHRCIAPDLIGMGKSDKPDLGYFFDDHVRFMDAFIEALGLEEVVLVIHDWGSALGFHWAKRNPERVKGIAFMEFIRPIPTWDEWPEFARETFQAFRTTDVGRKLIIDQNVFIEGTLPMGVVRPLTEVEMDHYREPFLNPVDREPLWRFPNELPIAGEPANIVALVEEYMDWLHQSPVPKLLFWGTPGVLIPPAEAARLAKSLPNCKAVDIGPGLNLLQEDNPDLIGSEIARWLSTLEISGGSGGSGGGGSGGMVFTLEDFVGDWEQTAAYNLDQVLEQGGVSSLLQNLAVSVTPIQRIVRSGENALKIDIHVIIPYEGLSADQMAQIEEVFKVVYPVDDHHFKVILPYGTLVIDGVTPNMLNYFGRPYEGIAVFDGKKITVTGTLWNGNKIIDERLITPDGSMLFRVTINS
B6: LgBiT-6xHis (other)
chain: MVFTLEDFVGDWEQTAAYNLDQVLEQGGVSSLLQNLAVSVTPIQRIVRSGENALKIDIHVIIPYEGLSADQMAQIEEVFKVVYPVDDHHFKVILPYGTLVIDGVTPNMLNYFGRPYEGIAVFDGKKITVTGTLWNGNKIIDERLITPDGSMLFRVTINSHHHHHH
notes: also called LgBiT-6×His; LgBiT alone

What was measured:
[1] = molecular target: FKBP-SmHT-HiBiT; experiment: cell-based or functional assay
[2] = molecular target: T1, Biotin-HaloTag[3-19] (I2R + G3K)-4xGly/Ser-VS-HiBiT (N-terminal biotin); experiment: BLI; biotin-peptide on streptavidin probe; PBST, 25 C
T1 construct: Synthetic peptide; also called HaloTag[3-19](I2R + G3K)-4xGS-VSHiBIT
T1 peptide: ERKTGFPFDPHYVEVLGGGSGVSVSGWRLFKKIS

[3] = molecular target: T2, Biotin-HaloTag[3-19] (G5R)-4xGly/Ser-VS-HiBiT (N-terminal biotin); experiment: as above
T2 construct: Synthetic peptide
T2 peptide: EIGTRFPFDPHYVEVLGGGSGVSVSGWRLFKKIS

[4] = molecular target: T3, Biotin-HaloTag[3-19] (D9R)-4xGly/Ser-VS-HiBiT (N-terminal biotin); experiment: as above
T3 construct: Synthetic peptide
T3 peptide: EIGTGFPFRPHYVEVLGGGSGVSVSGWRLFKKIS

[5] = molecular target: T4, Biotin-HaloTag[3-19] (I2R)-4xGly/Ser-VS-HiBiT (N-terminal biotin); experiment: as above
T4 construct: Synthetic peptide; also called HaloTag[3-19](12R)-4×Gly/Ser-VS-HiBiT; DualTag peptide
T4 peptide: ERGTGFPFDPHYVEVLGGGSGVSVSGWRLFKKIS

[6] = molecular target: T5, Biotin-HaloTag[3-19] (E14K)-4xGly/Ser-VS-HiBIT (N-terminal biotin); experiment: as above
T5 construct: Synthetic peptide
T5 peptide: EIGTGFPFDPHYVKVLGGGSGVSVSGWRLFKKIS

[7] = molecular target: T6, Biotin-HaloTag[3-19] (D9R + L16R)-4xGly/Ser-VS-HiBiT (N-terminal biotin); experiment: as above
T6 construct: Synthetic peptide; also called HaloTag[3-19](D9R + L16R)-4xGS-VSHiBiT
T6 peptide: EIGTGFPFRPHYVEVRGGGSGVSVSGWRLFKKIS

[8] = molecular target: T7, Biotin-HaloTag[3-19] (G3K)-4xGly/Ser-VS-HiBIT (N-terminal biotin); experiment: as above
T7 construct: Synthetic peptide
T7 peptide: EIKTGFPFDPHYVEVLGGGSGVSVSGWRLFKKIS

[9] = molecular target: T8, Biotin-HaloTag[3-19] (I2R + G17R)-4xGly/Ser-VS-HiBiT (N-terminal biotin); experiment: as above
T8 construct: Synthetic peptide; also called HaloTag[3-19](I2R + G17R)-4xGS-VSHiBiT
T8 peptide: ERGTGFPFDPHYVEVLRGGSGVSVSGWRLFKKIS

[10] = molecular target: T9, Biotin-HaloTag[3-19] (G3K + E14K)-4xGly/Ser-VS-HiBiT (N-terminal biotin); experiment: as above
T9 construct: Synthetic peptide; also called HaloTag[3-19](G3K + E14K)-4xGS-VSHiBiT
T9 peptide: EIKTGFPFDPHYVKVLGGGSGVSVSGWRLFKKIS

[11] = molecular target: T10, Biotin-HaloTag[3-19] (D9R + E14K)-4xGly/Ser-VS-HiBiT (N-terminal biotin); experiment: as above
T10 construct: Synthetic peptide; also called HaloTag[3-19](D9R + E14K)-4xGS-VSHiBiT
T10 peptide: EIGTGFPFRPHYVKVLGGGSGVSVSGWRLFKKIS

[12] = molecular target: T11, Biotin-HaloTag[3-19] (L16R)-4xGly/Ser-VS-HiBiT (N-terminal biotin); experiment: as above
T11 construct: Synthetic peptide
T11 peptide: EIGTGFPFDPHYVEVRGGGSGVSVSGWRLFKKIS

[13] = molecular target: T12, Biotin-HaloTag[3-19] (I2R + D9R)-4xGly/Ser-VS-HiBiT (N-terminal biotin); experiment: as above
T12 construct: Synthetic peptide; also called HaloTag[3-19](I2R + D9R)-4xGS-VSHiBiT
T12 peptide: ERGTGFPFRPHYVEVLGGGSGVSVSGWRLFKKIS

[14] = molecular target: T13, Biotin-HaloTag[3-19] (I2R + G5R)-4xGly/Ser-VS-HiBiT (N-terminal biotin); experiment: as above
T13 construct: Synthetic peptide; also called HaloTag[3-19](I2R + G5R)-4xGS-VSHiBiT
T13 peptide: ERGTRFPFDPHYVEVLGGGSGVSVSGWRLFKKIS

[15] = molecular target: T14, Biotin-HaloTag[3-19] (G3K + L16R)-4xGly/Ser-VS-HiBiT (N-terminal biotin); experiment: as above
T14 construct: Synthetic peptide; also called HaloTag[3-19](G3K + L16R)-4xGS-VSHiBiT
T14 peptide: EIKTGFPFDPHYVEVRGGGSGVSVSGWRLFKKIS

[16] = molecular target: T15, Biotin-VS-HiBiT; experiment: as above
T15 construct: Synthetic peptide
T15 peptide: Biotin-VSVSGWRLFKKIS

Row | Binder | luminescence (FIG. 9) [1] | kon [2] | kon [3] | Kd [5] | koff [5] | kon [5] | kon [7] | Kd [8] | koff [8] | kon [8] | kon [11] | kon [14] | Kd [16] | koff [16] | kon [16] | other results
1 | B1 | ~100 fold | – | – | – | – | – | – | – | – | – | – | – | – | – | – | –
2 | B2 | – | 104000 M⁻¹ s⁻¹ | 85300 M⁻¹ s⁻¹ | 0.684 nM and 0.466 nM | 4.56e-05 s⁻¹ and 3.26e-05 s⁻¹ | 66700 M⁻¹ s⁻¹ and 70000 M⁻¹ s⁻¹ | 134000 M⁻¹ s⁻¹ | 0.264 nM | 1.93e-05 s⁻¹ | 73000 M⁻¹ s⁻¹ | 152000 M⁻¹ s⁻¹ | 95100 M⁻¹ s⁻¹ | – | – | – | Kd [4]: 0.126 nM; koff [4]: 1.09e-05 s⁻¹; kon [4]: 86600 M⁻¹ s⁻¹; kon [6]: 108000 M⁻¹ s⁻¹; kon [9]: 93300 M⁻¹ s⁻¹; kon [10]: 128000 M⁻¹ s⁻¹; Kd [11]: 0.111 nM; koff [11]: 1.69e-05 s⁻¹; kon [12]: 77900 M⁻¹ s⁻¹; kon [13]: 128000 M⁻¹ s⁻¹; kon [15]: 97100 M⁻¹ s⁻¹
3 | B3 | – | – | – | 0.669 nM | 4.09e-05 s⁻¹ | 61300 M⁻¹ s⁻¹ | – | – | – | – | – | – | – | – | – | –
4 | B4 | – | – | 46000 M⁻¹ s⁻¹ | 0.509 nM | 2.75e-05 s⁻¹ | 54000 M⁻¹ s⁻¹ | – | 0.102 nM | 5.03e-06 s⁻¹ | 49500 M⁻¹ s⁻¹ | – | – | 2.4 nM | 0.000628 s⁻¹ | 261000 M⁻¹ s⁻¹ | Kd [3]: 0.485 nM; koff [3]: 2.23e-05 s⁻¹
5 | B5 | ~100 fold | – | – | – | – | – | – | – | – | – | – | – | – | – | – | –
6 | B6 | – | 74500 M⁻¹ s⁻¹ | – | – | – | – | 64800 M⁻¹ s⁻¹ | – | – | – | 83000 M⁻¹ s⁻¹ | 53200 M⁻¹ s⁻¹ | 5.06 nM | 0.000931 s⁻¹ | 184000 M⁻¹ s⁻¹ | Kd [2]: 0.323 nM; koff [2]: 2.4e-05 s⁻¹; Kd [14]: 0.11 nM; koff [14]: 5.86e-06 s⁻¹
